Biological target: CD63-GLucC (CD63 truncated at Val206 fused to the C-terminal fragment of Gaussia luciferase) (UniProt P08962)
Test: split reporter (BiFC, NanoBiT); Gaussia luciferase protein complementation assay (PCA); GLucN and GLucC fusion plasmids co-transfected 1:1 into HEK293FT; membranes disrupted by two freeze-thaw cycles; luminescence with 10 uM coelenterazine

Sequence of UniProt P08962 (P08962 1-206): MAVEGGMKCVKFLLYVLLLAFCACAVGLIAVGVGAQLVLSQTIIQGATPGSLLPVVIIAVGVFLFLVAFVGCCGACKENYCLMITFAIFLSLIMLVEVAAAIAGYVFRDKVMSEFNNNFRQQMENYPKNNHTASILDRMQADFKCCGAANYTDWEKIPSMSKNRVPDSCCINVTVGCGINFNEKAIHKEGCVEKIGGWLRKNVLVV

GLucN-T1ΔC (TIMP-1 truncated after L168) (domain or fragment)
loss of the ability to bind CD63 against full-length TIMP-1: 83%
